# Where a SMILES comes first, the peptide text is derived from it. Where no end group is shown, it is not given here. [ ]: non-standard residue; d: D form. The star is where a group is joined. pS = N[C@@H](COP(=O)(O)O)C(=O)O; Cbz = O=C(OCc1ccccc1)*
# T1: β-TrCP (Homo sapiens, UniProt Q9Y297)
# T1 chain: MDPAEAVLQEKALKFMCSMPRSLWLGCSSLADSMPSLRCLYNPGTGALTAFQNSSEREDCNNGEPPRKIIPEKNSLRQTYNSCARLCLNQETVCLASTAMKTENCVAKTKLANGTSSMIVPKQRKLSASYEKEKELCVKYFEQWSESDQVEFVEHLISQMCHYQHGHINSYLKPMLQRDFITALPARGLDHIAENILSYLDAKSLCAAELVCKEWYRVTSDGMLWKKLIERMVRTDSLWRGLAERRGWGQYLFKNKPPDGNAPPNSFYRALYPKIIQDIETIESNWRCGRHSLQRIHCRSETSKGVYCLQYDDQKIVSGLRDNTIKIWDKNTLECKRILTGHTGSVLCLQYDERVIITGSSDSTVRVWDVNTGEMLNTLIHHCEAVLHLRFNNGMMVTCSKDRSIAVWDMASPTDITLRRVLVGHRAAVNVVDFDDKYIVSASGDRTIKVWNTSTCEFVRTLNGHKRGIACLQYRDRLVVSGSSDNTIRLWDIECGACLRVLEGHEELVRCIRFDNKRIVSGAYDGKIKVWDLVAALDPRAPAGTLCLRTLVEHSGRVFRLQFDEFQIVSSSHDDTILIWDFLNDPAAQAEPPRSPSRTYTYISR
# Tests used:
# [1] = biological target: biotinylated β-TrCP1-avi tag/Skp1 complex (UniProt Q9Y297); assay: FRET or BRET; TR-FRET, no compound: BODIPY-FL β-catenin peptide titrated against 300 pM biotinylated β-TrCP/Skp1 on 1.2 nM terbium-streptavidin; PBS, 0.01% Triton X-100, 2 mM DTT, 2% DMSO; 1 h
# [2] = biological target: β-TrCP1 (recombinant β-TrCP/Skp1 complex) (UniProt Q9Y297); assay: peptide binding assay, type not said; conditions: reference: pSer33/pSer37 peptide; sites S37
# [3] = biological target: Myc/FLAG-tagged S33E/S37A phosphomimetic full-length β-catenin (UniProt P35222)
# [4] = biological target: β-TrCP1 (recombinant β-TrCP/Skp1 complex) (UniProt Q9Y297); assay: fluorescence polarisation titration; conditions: sites S33
# [5] = biological target: T2, S33E/S37A mutant β-catenin (Homo sapiens, UniProt P35222+Q9Y297, S33E/S37A); assay: β-catenin degradation in HEK293T cells stably expressing S33E/S37A β-catenin; type: cell-based; conditions: for effect of co-treatment on enhancer-induced degradation of S33E/S37A β-catenin: 5 μM MLN4924 or 10 μM MG132, added 30 min before NRX-252114
# T2 construct: Full-length β-catenin (Myc/FLAG-tagged; Origene); expressed in transfected cells
# Experimental: HEK293T cells were plated in a 10 cm dish in regular growth media (DMEM + 10% FBS) and allowed to adhere to the plate overnight. The following day, cells were transfected with S33E/S37 β-catenin using FuGeneHD transfection reagent. Transfected cells were then selected with media containing 700 μg/ml Geneticin. A pooled population of selected cells were used for all described experiments.
# HEK293T cells expressing S33E/S37A β-catenin were plated in six-well plates at a density of 9 × 10^5 cells/well. The following day, cells were incubated with compounds diluted in regular growth media to the appropriate concentration. The final concentration of DMSO for all cell treatments was kept at 0.5% or less. Cell treatments with the Nedd8 inhibitor (MLN4924) and the proteasome inhibitor (MG132) were performed at a final concentration of 5 μM and 10 μM respectively. Cycloheximide treatment was performed at a final concentration of 100 μg/ml.
# [6] = biological target: T3, S33E/S37A β-catenin peptide binding to β-TrCP (Homo sapiens, UniProt P35222+Q9Y297, S33E/S37A); assay: TR-FRET binding enhancement assay, S33E/S37A peptide; conditions: 1% binding saturation
# T3 construct: titrating BODIPY-FL-labeled β-catenin peptides (residues 17-48) against 300 pM β-TrCP; 6xHis-SMT3 (N, cleaved yes); made in house; host or cells: E. coli (co-expressed with BirA)
# Experimental: (§1) Compounds were incubated in a 20 μl reaction volume with 300 pM biotinylated β-TrCP/Skp1 preincubated with 1.2 nM terbium-coupled streptavidin (Cisbio) and BODIPY-FL labeled β-catenin peptides (see figure legends for peptide details) in a white 384-well microplate (Perkin Elmer ProxiPlate), using a PBS buffer containing 0.01% Triton X-100 and 2 mM DTT with 2% final DMSO. […] Following 1-h incubation, plates were read for TR-FRET signal after excitation at 320 nm and read at 520 and 620 nm using an EnVision plate reader (Perkin Elmer). TR-FRET signal was calculated using a 520/620 nm ratio. Binding and enhancement data were fit to a standard Hill equation (Y = Bmin + (Bmax − Bmin)(X^h)/(X^h + EC50^h)) in Prism (GraphPad). Errors are standard error of the fit.
# [7] = biological target: T4, pSer33/S37A β-catenin peptide binding to β-TrCP (Homo sapiens, UniProt P35222+Q9Y297, S37A); assay: TR-FRET binding enhancement assay, pSer33/S37A peptide
# T4 construct: titrating BODIPY-FL-labeled β-catenin peptides (residues 17-48) against 300 pM β-TrCP; 6xHis-SMT3 (N, cleaved yes); made in house; host or cells: E. coli (co-expressed with BirA)
# Experimental: as §1
# [8] = biological target: T5, endogenous S37A mutant β-catenin (Homo sapiens, UniProt P35222+Q9Y297, S37A); assay: Degradation of endogenous S37A β-catenin in TOV-112D cells; type: cell-based
# T5 construct: host or cells: TOV-112D
# [9] = Solubility (qualitative remark); type: physicochemical
# [10] = biological target: β-TrCP1 (recombinant β-TrCP/Skp1 complex) (UniProt Q9Y297); assay: TR-FRET peptide titration, no compound; conditions: reference: Ser33/S37A peptide; sites S33
# [11] = biological target: T6, pSer33/Ser37 β-catenin peptide binding to β-TrCP (Homo sapiens, UniProt P35222+Q9Y297); assay: TR-FRET peptide binding and cooperativity assay, pSer33/Ser37 peptide; conditions: 500 μM NRX-1532; 300 pM β-TrCP; read-out: KD pS33/S37
# T6 construct: titrating BODIPY-FL-labeled β-catenin peptides (residues 17-48) against 300 pM β-TrCP; 6xHis-SMT3 (N, cleaved yes); made in house; host or cells: E. coli (co-expressed with BirA)
# Experimental: as §1
# [12] = biological target: T7, pSer33/Ser37 β-catenin:β-TrCP interaction (Homo sapiens, UniProt P35222+Q9Y297); assay: SPR binding enhancement assay
# T7 construct: titrating BODIPY-FL-labeled β-catenin peptides (residues 17-48) against 300 pM β-TrCP; 6xHis-SMT3 (N, cleaved yes); made in house; host or cells: E. coli (co-expressed with BirA)
# Experimental: SPR binding assays were performed on a GE Healthcare Biacore T200 using a Series B Biacore Sensor Chip SA. […] 333 nM β-TrCP/Skp1 and titrated compound were preincubated and flowed at a rate of 30 μl/min in 10 mM HEPES, 150 mM NaCl, 0.05% Surfactant P20, 1 mM TCEP, and 2% DMSO at pH 7.4 and 20 °C. Engagement of the ternary complex was assessed with a contact and dissociation time of 120 s. […] Errors are standard error of the fit.
# [13] = pKa determination (fast UV); type: physicochemical; conditions: methanol:water co-solvent
# Experimental: The pKa values were determined using the fast UV (spectrometric) technique. Samples were titrated in triplicate under methanol:water co-solvent conditions (with MeOH:water mixing ratios varied from 1:1 to 1:4) in the pH range 2.0–12.0 at concentrations of 15 to 30 μM and at a temperature of 25 °C. Aqueous pKa values were determined by Yasuda-Shedlovsky extrapolation from the individual determined results.
# β-TrCP = biological target: T1, β-TrCP; assay: TR-FRET
# [14] = biological target: T8, biotinylated β-TrCP/Skp1 complex (6xHis-SMT3-β-TrCP1-avi tag/Skp1, for TR-FRET) (UniProt Q9Y297-2 1-569; P63208 1-163, biotin on the avi tag (co-expressed with BirA)); assay: AlphaScreen or HTRF; TR-FRET: BODIPY-FL-labeled β-catenin peptides titrated against 300 pM biotinylated β-TrCP/Skp1 on 1.2 nM terbium-coupled streptavidin; PBS, 0.01% Triton X-100, 2 mM DTT, 2% DMSO; 1 h; one-site binding model; no compound; conditions: both partners purified
# T8 construct: β-TrCP1; Skp1; Held on terbium-coupled streptavidin in the TR-FRET assay; also called β-TrCP complex; source: E. coli, co-expressed from pCDF-Duet1 with BirA and d-biotin, purified (Ni-NTA, ULP1 cleavage, HiTrap SP, SEC); not shown: His6, N-terminal, cleaved; SMT3, N-terminal, cleaved; avi tag, C-terminal, kept
# T8 sequence (P63208 whole entry, one chain of several): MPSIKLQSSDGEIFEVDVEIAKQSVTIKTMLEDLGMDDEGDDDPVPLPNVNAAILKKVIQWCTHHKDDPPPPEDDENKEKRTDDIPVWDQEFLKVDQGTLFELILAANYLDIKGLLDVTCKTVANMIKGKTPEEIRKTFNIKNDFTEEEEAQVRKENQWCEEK
# T2 sequence (P35222 whole entry S33E/S37A, one chain of several): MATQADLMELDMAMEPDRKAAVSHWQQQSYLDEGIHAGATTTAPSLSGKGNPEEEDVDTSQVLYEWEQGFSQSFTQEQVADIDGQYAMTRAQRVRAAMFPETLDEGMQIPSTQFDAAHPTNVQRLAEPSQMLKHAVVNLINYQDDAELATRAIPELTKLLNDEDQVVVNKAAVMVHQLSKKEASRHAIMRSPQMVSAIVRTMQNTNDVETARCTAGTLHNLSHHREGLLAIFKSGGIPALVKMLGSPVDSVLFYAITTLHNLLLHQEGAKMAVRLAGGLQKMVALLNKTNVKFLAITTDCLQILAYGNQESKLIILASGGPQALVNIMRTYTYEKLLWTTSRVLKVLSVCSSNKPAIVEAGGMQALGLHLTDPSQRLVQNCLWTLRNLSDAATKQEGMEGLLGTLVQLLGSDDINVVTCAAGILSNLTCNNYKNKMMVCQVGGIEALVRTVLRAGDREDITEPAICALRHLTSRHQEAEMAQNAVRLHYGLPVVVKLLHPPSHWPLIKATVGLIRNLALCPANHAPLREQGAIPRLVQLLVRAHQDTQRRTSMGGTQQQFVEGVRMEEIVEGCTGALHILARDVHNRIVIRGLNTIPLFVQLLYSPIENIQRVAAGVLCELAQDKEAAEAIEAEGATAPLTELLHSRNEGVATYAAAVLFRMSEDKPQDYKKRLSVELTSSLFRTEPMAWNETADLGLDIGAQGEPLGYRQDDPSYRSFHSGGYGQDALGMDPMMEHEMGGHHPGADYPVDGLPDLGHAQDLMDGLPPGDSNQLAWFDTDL
# T2 sequence (P63208 whole entry partner, one chain of several): as the sequence (P63208 whole entry, one chain of several) above
# T2 sequence (Q13616 whole entry partner, one chain of several): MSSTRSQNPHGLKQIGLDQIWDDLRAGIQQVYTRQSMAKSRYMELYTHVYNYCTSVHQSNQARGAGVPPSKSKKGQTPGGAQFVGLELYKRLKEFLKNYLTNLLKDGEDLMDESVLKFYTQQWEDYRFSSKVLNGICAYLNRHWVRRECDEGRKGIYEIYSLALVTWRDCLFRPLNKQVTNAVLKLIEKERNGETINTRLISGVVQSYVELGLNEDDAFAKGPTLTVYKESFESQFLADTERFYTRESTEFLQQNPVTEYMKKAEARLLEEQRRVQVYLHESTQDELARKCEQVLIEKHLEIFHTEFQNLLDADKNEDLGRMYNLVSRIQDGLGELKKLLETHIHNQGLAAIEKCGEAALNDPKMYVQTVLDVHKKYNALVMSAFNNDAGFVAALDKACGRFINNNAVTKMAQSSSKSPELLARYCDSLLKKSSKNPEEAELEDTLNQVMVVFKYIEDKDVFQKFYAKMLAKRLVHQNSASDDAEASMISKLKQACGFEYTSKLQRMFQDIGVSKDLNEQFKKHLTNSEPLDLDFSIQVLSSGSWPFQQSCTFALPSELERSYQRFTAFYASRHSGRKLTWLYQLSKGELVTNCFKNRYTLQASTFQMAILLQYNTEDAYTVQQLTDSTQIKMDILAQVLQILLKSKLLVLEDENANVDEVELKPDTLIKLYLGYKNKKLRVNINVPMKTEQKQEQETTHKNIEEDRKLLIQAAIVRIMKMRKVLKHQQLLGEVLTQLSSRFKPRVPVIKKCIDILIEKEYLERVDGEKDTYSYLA
# T2 sequence (P62877 whole entry partner, one chain of several): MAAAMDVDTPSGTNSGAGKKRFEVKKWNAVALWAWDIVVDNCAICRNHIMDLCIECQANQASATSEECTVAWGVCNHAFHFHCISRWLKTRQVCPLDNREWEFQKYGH
# T2 sequence (Q15843 1-76 partner limits assumed, one chain of several): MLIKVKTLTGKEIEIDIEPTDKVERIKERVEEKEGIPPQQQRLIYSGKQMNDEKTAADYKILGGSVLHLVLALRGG
# T5 sequence (P35222 whole entry S37A, one chain of several): as the sequence (P35222 whole entry S33E/S37A, one chain of several) above, with E33S counted along it
# T5 sequence (P63208 whole entry partner, one chain of several): as the sequence (P63208 whole entry, one chain of several) above
# T5 sequence (Q13616 whole entry partner, one chain of several): as the sequence (Q13616 whole entry partner, one chain of several) above
# T5 sequence (P62877 whole entry partner, one chain of several): as the sequence (P62877 whole entry partner, one chain of several) above
# T5 sequence (Q15843 1-76 partner limits assumed, one chain of several): as the sequence (Q15843 1-76 partner limits assumed, one chain of several) above
# β-catenin, sequence (P35222 whole entry, looked up, stated change not applied): as the sequence (P35222 whole entry S33E/S37A, one chain of several) above, with E33S, A37S counted along it
molecule,measurement,setting,value
BODIPY-FL-labeled S33E/S37A phosphomimetic β-catenin peptide (residues 17-48) (from UniProt P35222 17-48),Kd,[1],> 5000 nM
same,fold decrease in binding affinity relative to the pSer33/S37A peptide,[1],> 10 fold
β-catenin (from UniProt P35222) pSer33/S37A peptide,binding against the reference,[2],weaker
endogenous β-TrCP of HEK293T cells (from UniProt Q9Y297 1-605) (natural protein),"degradation of stably expressed Myc/FLAG S33E/S37A β-catenin in HEK293T cells, NRX-252114 for 6 h, western blot",[3],50 µM
same,"degradation of stably expressed Myc/FLAG S33E/S37A β-catenin in HEK293T cells, NRX-252262 for 6 h, western blot",[3],35 µM
β-catenin 17-48 (from UniProt P35222) Ser33/pSer37 peptide,KD,[4]; reference: pSer33/pSer37 peptide,weaker; reference 2 nM
"CC(C)C[C@@H](C=O)NC(=O)[C@H](CC(C)C)NC(=O)[C@H](CC(C)C)NC(=O)OCc1ccccc1 [MG132, reference compound] (Cbz-Leu-Leu-Leu-aldehyde)",effect of co-treatment on enhancer-induced degradation of S33E/S37A β-catenin,[5],completely blocked
β-catenin 17-48 (from UniProt P35222) pSer33/Ser37 peptide,binding against the reference,[4]; reference: non-phosphorylated peptide (Ser33/Ser37),stronger
CN(C)C(=O)c1cccc(NC(=O)c2c(Sc3c(Cl)cccc3Cl)cc(C(F)(F)F)[nH]c2=O)c1 [NRX-103095],EC50,[6],6700 ± 700 nM
same,EC50,[7],163 ± 6 nM
COc1cc2c(cc1OC)CN(C(=O)c1c(Sc3c(Cl)cccc3Cl)cc(C(F)(F)F)[nH]c1=O)C2 [NRX-252262],concentration at which degradation of S33E/S37A mutant β-catenin starts,"[5]; HEK293T stable line, 6 h, western",~ 35 μM
same,degradation of endogenous S37A mutant β-catenin,[8],did not induce degradation
O=C(Nc1cccc(-c2nnn[nH]2)c1)c1ccc(C(F)(F)F)[nH]c1=O [NRX-1933],solubility relative to NRX-1532,[9],more soluble
"NS(=O)(=O)OC[C@@H]1C[C@@H](n2ccc3c(N[C@H]4CCc5ccccc54)ncnc32)C[C@@H]1O [MLN4924, reference compound]",effect of co-treatment on enhancer-induced degradation of S33E/S37A β-catenin,[5],completely blocked
β-catenin 17-48 (from UniProt P35222) pSer33/S37A peptide,binding against the reference,[10],stronger
O=C(Nc1cccc(-c2ccn[nH]2)c1)c1ccc(C(F)(F)F)[nH]c1=O [NRX-1532],Kd,[11],68 nM
same,EC50,[12],129000 ± 33000 nM
same,pKa,[13],5.6
"β-catenin peptide (protein, 20 µM NRX-252114) ATQADLMELDMAMEPDRKAAVSHWQQQSYLDSGIHSGATTTAPSLSGKGNPEEEDVDTSQVLYEWEQGFSQSFTQEQVADIDGQYAMTRAQRVRAAMFPETLDEGMQIPSTQFDAAHPTNVQRLAEPSQMLKHAVVNLINYQDDAELATRAIPELTKLLNDEDQVVVNKAAVMVHQLSKKEASRHAIMRSPQMVSAIVRTMQNTNDVETARCTAGTLHNLSHHREGLLAIFKSGGIPALVKMLGSPVDSVLFYAITTLHNLLLHQEGAKMAVRLAGGLQKMVALLNKTNVKFLAITTDCLQILAYGNQESKLIILASGGPQALVNIMRTYTYEKLLWTTSRVLKVLSVCSSNKPAIVEAGGMQALGLHLTDPSQRLVQNCLWTLRNLSDAATKQEGMEGLLGTLVQLLGSDDINVVTCAAGILSNLTCNNYKNKMMVCQVGGIEALVRTVLRAGDREDITEPAICALRHLTSRHQEAEMAQNAVRLHYGLPVVVKLLHPPSHWPLIKATVGLIRNLALCPANHAPLREQGAIPRLVQLLVRAHQDTQRRTSMGGTQQQFVEGVRMEEIVEGCTGALHILARDVHNRIVIRGLNTIPLFVQLLYSPIENIQRVAAGVLCELAQDKEAAEAIEAEGATAPLTELLHSRNEGVATYAAAVLFRMSEDKPQDYKKRLSVELTSSLFRTEPMAWNETADLGLDIGAQGEPLGYRQDDPSYRSFHSGGYGQDALGMDPMMEHEMGGHHPGADYPVDGLPDLGHAQDLMDGLPPGDSNQLAWFDTDL",Kd,β-TrCP,180 nM
"Ac-CDRKAAVSHWQQQSYLD[pS]GIHCGATTTAPSLSG (cysteine pairing not given here; also: BODIPY-FL label, site not given here, added N-terminal cysteine of the peptide list, not part of β-catenin 17-48; as the printed 17-48 peptide with this change; also called pSer33/Cys37; pS33/S37C) [BODIPY-FL-labeled pSer33/S37C β-catenin peptide (residues 17-48)]",Kd,[14],154 nM
"Ac-CDRKAAVSHWQQQSYLD[pS]GIHFGATTTAPSLSG (also: BODIPY-FL label, site not given here, added N-terminal cysteine of the peptide list, not part of β-catenin 17-48; as the printed 17-48 peptide with this change; also called pSer33/Phe37; pS33/S37F) [BODIPY-FL-labeled pSer33/S37F β-catenin peptide (residues 17-48)]",Kd,[14],23 nM

# Source: article PMC6441019, “Prospective discovery of small molecule enhancers of an E3 ligase-substrate interaction” (Nature Communications, 2019)
